From US20200397860A1, “SLIT AND BONE GROWTH MODULATION” (Cornell University, priority 2018, published 2020)
“Also recorded” adds a separate entry of the source.

Legend:
[1] = test system: bone marrow derived EPOCs; experiment: Alamar blue based proliferation assay; assay type: cell-based, mouse
Description: (§1) Mouse bone marrow derived late-stage endothelial progenitor outgrowth cells (EPOCs) were obtained from BioChain (7030031) and cultured in growth medium (BioChain Z7030035) as described previously (Xie et al. 2014). Endothelial cell migration assay was set up in Trans well-24 well plates with 8-um pore filters. Briefly, 1×10^5 cells/well after 1-hour serum starvation were seeded in the upper chamber, then incubated with conditioned medium from osteoblasts and control in the lower chambers for a further 3 h. The cells in the upper surface of each filter were removed with cotton swabs. The cells that migrated into the lower surface were fixed with 4% PFA for 30 min and then stained with crystal violet. The cell numbers were quantified by counting a centered microscope field per each filter (5 wells for each condition). […] The width of the wound area was quantitatively evaluated using ImageJ (see website at rsb.info.uih.gov/ij/download.html). […] At 0, 24, 48 hours after seeding, cells were incubated with 10-fold diluted Alamar Blue solution (Thermo Fisher) and the supernatant was evaluated with a spectrophotometer (Thermo) (5 wells for each condition). […] Alter 5 hours incubation at 37° C., the number of tube branches each well was observed and quantified by counting four random fields per well with microscopy (5 wells for each condition).

[2] = test system: bone marrow endothelial cells; experiment: Immunoblot of YAP, AKT and ERK phosphorylation after SLIT3 treatment; assay type: cell-based, mouse
Description: Western blot analysis was performed according to a previously described standard protocol. (Greenblatt et al. 2016) Primary antibodies were specific for SLIT3 (1:500; R&D Systems, AF3629), ROBO1 (1:500; Abeam, ab7279), ROBO2 (1:1000; Abcam, ab75014), YAP (1:1,000; Cell Signaling, 4912), p-YAP (1:1,000; Cell signaling, 4911), AKT (1:1,000; Cell Signaling, 4691), p-AKT (1:1,000; Cell Signaling, 4060), ERK (1:1,000; Cell Signaling, 9102), p-ERK (1:1,000; Cell Signaling, 9101) and beta-actin (1:5,000, sc-47778, Santa Cruz) or Hsp90 (1:1000; sc-13119, Santa Cruz). Secondary anti-mouse/rabbit HRP-conjugated antibodies were subsequently applied.

[3] = test system: bone marrow endothelial progenitor outgrowth cells (EPOCs); experiment: Endothelial cell wound healing (migration) assay; assay type: cell-based, mouse
Description: as §1

[4] = test system: murine ovariectomy (OVX) model of postmenopausal osteoporosis; experiment: Ovariectomy (OVX) induced bone loss, prophylactic model; assay type: in vivo, mouse
Description: Micro-CT (μCT) analysis was conducted on a Scanco Medical μCT 35 system at the Citigroup Biomedical Imaging Core using the previously described parameters. (Shim et al. 2013). μCT analysis was performed by an investigator blinded to the genotypes of the animals under analysis.
For histomorphometry, mice were injected with calcein (25 mg/kg, Sigma), and undecalcified sections of the lumbar vertebrae were stained using von Kossa and TRAP as described by Fukuda et al. (2013). Static and dynamic histomorphometric analysis was performed with using the Osteomeasure Analysis System (Osteometrics) following standard nomenclature as described (Dempster et al. 2013). Bone volume/total volume (BV/TV), bone formation rate/bone surface (BFR/BS, μm^3 […] yr^−1), mineral apposition rate (MM, um Day^−1), osteoblast surface/bone surface (Ob.S/BS, %) and osteoclast number/bone perimeter (No. OC/Bpm) were analyzed.
For the prophylactic model, 12-week-old female mice (JAX) were anesthetized and bilaterally ovariectomized or sham operated. Ovariectomized mice were given twice weekly intravenous injections of 1 mg per kg body weight of SLITS or vehicle or daily subcutaneous (sc) injections of 80 ug/kg PTH (1-34) for 6 weeks starting 2 weeks after ovariectomy. […] All mice were then randomly assigned to one of four groups: Sham, OVX+vehicle, OVX+SLITS and OVX+PTH. Three days after the last injection, all of the mice were euthanized and subjected to bone analysis as described earlier.

[5] = test system: bone marrow-derived endothelial cells; experiment: Flow cytometry of CD31hiEMCNhi endothelial cells in EPOC cultures; assay type: cell-based, mouse; conditions: cultures of EPOCs
Description: Femur and tibia were dissected from mutant mice and control groups after removing surrounding connective tissues. The metaphysis region and diaphysis regions of bone was crushed in Hanks Balanced Salt Solution (Life Technologies) containing 10 mM HOPES (pH 7.2) (CellGro) and enzymatically digested with 2.5 mg/mL Collagenase A (Roche) and 1 unit/mL Dispase II (Roche) for 15 minutes at 37° C. under gentle agitation. The resulting cell suspensions were filtered (40 μm), washed using PBS (pH 7.2) containing 0.5% BSA (Fraction V) and 2 mM EDTA. […] After washing, cells were resuspended in PBS (pH 7.2) with 2 mM EDTA and 1 μg/mL 4-6,Diamidino-2-Phenylindole (DAPI) (live/dead exclusion) for analysis on an LSRII flow cytometer system (BD Biosciences) cytometer and analyzed using FlowJo software (TreeStar). […]
Mouse bone marrow derived late-stage endothelial progenitor outgrowth cells (EPOCs) were obtained from BioChain (7030031) and cultured in growth medium (BioChain Z7030035) as described previously (Xie et al. 2014). […] The cell numbers were quantified by counting a centered microscope field per each filter (5 wells for each condition). […] The width of the wound area was quantitatively evaluated using ImageJ (see website at rsb.info.uih.gov/ij/download.html). […]

[6] = test system: CD31^hiEMCN^hi endothelium; experiment: Flow cytometry of skeletal CD31hiEMCNhi endothelium in femurs after IV injection; assay type: in vivo, mouse; conditions: 8-week-old B6 mice, twice weekly IV 1 mg/kg, 21 days, femur; 1 mg/kg
Description: Femur and tibia were dissected from mutant mice and control groups after removing surrounding connective tissues. The metaphysis region and diaphysis regions of bone was crushed in Hanks Balanced Salt Solution (Life Technologies) containing 10 mM HOPES (pH 7.2) (CellGro) and enzymatically digested with 2.5 mg/mL Collagenase A (Roche) and 1 unit/mL Dispase II (Roche) for 15 minutes at 37° C. under gentle agitation. The resulting cell suspensions were filtered (40 μm), washed using PBS (pH 7.2) containing 0.5% BSA (Fraction V) and 2 mM EDTA. After washing, equal numbers of cells per mouse were blocked with Purified Rat Anti-Mouse CD16/CD32 (BD Biosciences) for 30 min on ice, then stained with APC-conjugated EMCN antibody (ebioscience 50-5851-80), PE-conjugated CD31 (ebioscience 12-0311-81). FITC-conjugated CD45 (Tonbo 35-0451), APC/Cy7-conjugated Ter119 (Biolegend 116223) and PerCP-Cy5.5-conjugated CD146 (BD Biosciences 562231) for 45 min on ice. After washing, cells were resuspended in PBS (pH 7.2) with 2 mM EDTA and 1 μg/mL 4-6,Diamidino-2-Phenylindole (DAPI) (live/dead exclusion) for analysis on an LSRII flow cytometer system (BD Biosciences) cytometer and analyzed using FlowJo software (TreeStar). Cell sorting was performed with a FACS Aria II SORP cell sorter (Becton Dickinson) at Weill Cornell Medical College, with exclusion of DAPI^+ cells and doublets. […]

[7] = treatment initiated two weeks after OVX

B1: SLIT3: SLIT3 recombinant protein (R&D); secreted ligand of ROBO receptors (protein, UniProt O75094 34-1523, looked up)
Slit homolog 3 protein: CPTKCTCSAASVDCHGLGLRAVPRGIPRNAERLDLDRNNITRITKMDFAGLKNLRVLHLEDNQVSVIERGAFQDLKQLERLRLNKNKLQVLPELLFQSTPKLTRLDLSENQIQGIPRKAFRGITDVKNLQLDNNHISCIEDGAFRALRDLEILTLNNNNISRILVTSFNHMPKIRTLRLHSNHLYCDCHLAWLSDWLRQRRTVGQFTLCMAPVHLRGFNVADVQKKEYVCPAPHSEPPSCNANSISCPSPCTCSNNIVDCRGKGLMEIPANLPEGIVEIRLEQNSIKAIPAGAFTQYKKLKRIDISKNQISDIAPDAFQGLKSLTSLVLYGNKITEIVKGLFDGLVSLQLLLLNANKINCLRVNTFQDLQNLNLLSLYDNKLQTISKGLFAPLQSIQTLHLAQNPFVCDCHLKWLADYLQDNPIETSGARCSSPRRLANKRISQIKSKKFRCSGSEDYRSRFSSECFMDLVCPEKCRCEGTIVDCSNQKLVRIPSHLPEYVTDLRLNDNEVSVLEATGIFKKLPNLRKINLSNNKIKEVREGAFDGAASVQELMLTGNQLETVHGRVFRGLSGLKTLMLRSNLIGCVSNDTFAGLSSVRLLSLYDNRITTITPGAFTTLVSLSTINLLSNPFNCNCHLAWLGKWLRKRRIVSGNPRCQKPFFLKEIPIQDVAIQDFTCDGNEESSCQLSPRCPEQCTCMETVVRCSNKGLRALPRGMPKDVTELYLEGNHLTAVPRELSALRHLTLIDLSNNSISMLTNYTFSNMSHLSTLILSYNRLRCIPVHAFNGLRSLRVLTLHGNDISSVPEGSFNDLTSLSHLALGTNPLHCDCSLRWLSEWVKAGYKEPGIARCSSPEPMADRLLLTTPTHRFQCKGPVDINIVAKCNACLSSPCKNNGTCTQDPVELYRCACPYSYKGKDCTVPINTCIQNPCQHGGTCHLSDSHKDGFSCSCPLGFEGQRCEINPDDCEDNDCENNATCVDGINNYVCICPPNYTGELCDEVIDHCVPELNLCQHEAKCIPLDKGFSCECVPGYSGKLCETDNDDCVAHKCRHGAQCVDTINGYTCTCPQGFSGPFCEHPPPMVLLQTSPCDQYECQNGAQCIVVQQEPTCRCPPGFAGPRCEKLITVNFVGKDSYVELASAKVRPQANISLQVATDKDNGILLYKGDNDPLALELYQGHVRLVYDSLSSPPTTVYSVETVNDGQFHSVELVTLNQTLNLVVDKGTPKSLGKLQKQPAVGINSPLYLGGIPTSTGLSALRQGTDRPLGGFHGCIHEVRINNELQDFKALPPQSLGVSPGCKSCTVCKHGLCRSVEKDSVVCECRPGWTGPLCDQEARDPCLGHRCHHGKCVATGTSYMCKCAEGYGGDLCDNKNDSANACSAFKCHHGQCHISDQGEPYCLCQPGFSGEHCQQENPCLGQVVREVIRRQKGYASCATASKVPIMECRGGCGPQCCQPTRSKRRKYVFQCTDGSSFVEEVERHLECGCLACS
- proliferation [1]: modestly increased the proliferation
- phosphorylation of YAP in response to ligand after Robo1 knockdown ([2]; EPOCs transduced with Robo1 shRNA): impaired their response
- signaling pathways downstream of SLIT3 (YAP, AKT, ERK phosphorylation) ([2]; mouse EPOCs after serum starvation): induces activation of Hippo and ERK MAPK pathway signaling
- migration [3]: enhanced migration
- OVX-induced bone loss (micro-CT) ([4]; IV twice weekly initiated two weeks after OVX): significantly countered OVX-induced bone loss; also recorded: comparable to the effects of PTH treatment; also recorded: preventive effects
- endosteal CD31hiEMCNhi endothelium after OVX ([4]; L3 vertebrae): reversed the attenuation
- endosteal bone formation ([4]; L3 vertebrae): rescued
- amounts of CD31hiEMCNhi vasculature in vivo ([4]; treatment for six weeks in vivo): increase amounts
- cortical thickness [4, 7]: increased
- trabecular BV/TV [4, 7]: increased
- acquisition of CD31hiEMCNhi surface immunophenotype in culture [5]: enhanced the acquisition; also recorded: induces production
- levels of skeletal CD31hiEMCNhi endothelium in vivo [6]: increased levels; also recorded: induces production
